Experimental data: patent US20070136897A1, “Nucleic acid molecules encoding hyperactive nucleoside di-phosphate kinase 2 and uses thereof” (priority 2005, published 2007)

T1: Arabidopsis thaliana NDPK2 C-terminal deletion mutant R230Stop (80-229aa), SEQ ID NO: 2 (Arabidopsis thaliana, UniProt O64903)
T1 sequence (O64903 80-229): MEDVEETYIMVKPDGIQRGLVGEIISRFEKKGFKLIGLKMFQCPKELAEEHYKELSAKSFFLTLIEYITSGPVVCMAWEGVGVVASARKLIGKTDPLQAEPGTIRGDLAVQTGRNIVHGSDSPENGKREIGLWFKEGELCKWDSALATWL

T2: purified native oat phytochrome A, Pfr form, P06593
T2 chain: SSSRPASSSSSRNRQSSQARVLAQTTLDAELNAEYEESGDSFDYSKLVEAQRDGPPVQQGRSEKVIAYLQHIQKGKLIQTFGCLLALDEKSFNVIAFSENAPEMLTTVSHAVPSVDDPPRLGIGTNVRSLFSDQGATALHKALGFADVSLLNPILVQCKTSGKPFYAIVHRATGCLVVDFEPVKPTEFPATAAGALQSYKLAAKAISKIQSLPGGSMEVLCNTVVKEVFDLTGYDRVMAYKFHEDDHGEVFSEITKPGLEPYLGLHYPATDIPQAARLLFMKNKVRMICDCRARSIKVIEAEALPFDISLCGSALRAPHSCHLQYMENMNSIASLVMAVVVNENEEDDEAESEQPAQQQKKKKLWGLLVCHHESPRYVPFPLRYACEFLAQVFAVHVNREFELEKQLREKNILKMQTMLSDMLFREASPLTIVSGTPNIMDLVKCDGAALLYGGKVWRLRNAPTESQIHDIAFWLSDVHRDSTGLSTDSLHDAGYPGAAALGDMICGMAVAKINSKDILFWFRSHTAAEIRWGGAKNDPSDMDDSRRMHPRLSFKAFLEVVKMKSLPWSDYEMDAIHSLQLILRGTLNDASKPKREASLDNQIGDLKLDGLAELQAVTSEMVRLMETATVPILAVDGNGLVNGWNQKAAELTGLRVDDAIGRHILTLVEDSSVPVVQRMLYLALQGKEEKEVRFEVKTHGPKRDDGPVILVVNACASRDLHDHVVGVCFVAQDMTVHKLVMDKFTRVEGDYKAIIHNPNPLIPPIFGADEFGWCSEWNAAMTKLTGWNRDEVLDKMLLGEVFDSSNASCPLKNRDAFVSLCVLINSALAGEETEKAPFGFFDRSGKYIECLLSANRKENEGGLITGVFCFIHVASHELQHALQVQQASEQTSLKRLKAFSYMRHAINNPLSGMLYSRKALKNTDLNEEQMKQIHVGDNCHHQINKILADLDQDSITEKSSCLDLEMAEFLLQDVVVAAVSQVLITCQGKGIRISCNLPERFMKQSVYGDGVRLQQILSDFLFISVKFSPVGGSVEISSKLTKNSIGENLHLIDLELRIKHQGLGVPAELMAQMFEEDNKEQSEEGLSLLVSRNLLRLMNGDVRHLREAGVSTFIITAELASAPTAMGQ

T3: purified native oat phytochrome A, Pfr form (oat, UniProt P06593 2-1129)
T3 construct: also called phyA; Pfr phytochrome
T3 sequence (looked up): T2 chain

B1: NDPK2 C-terminal deletion mutant R230Stop (protein)
chain: T1 sequence (O64903 80-229)
B2: Arabidopsis thaliana nucleoside diphosphate kinase 2 (NDPK2), wild type, SEQ ID NO: 1 (Arabidopsis thaliana) (protein)
chain: ASSSAESGIFLPHLVASMEDVEETYIMVKPDGIQRGLVGEIISRFEKKGFKLIGLKMFQCPKELAEEHYKELSAKSFFLTLIEYITSGPVVCMAWEGVGVVASARKLIGKTDPLQAEPGTIRGDLAVQTGRNIVHGSDSPENGKREIGLWFKEGELCKWDSALATWLRE
notes: hexamer
B3: NDPK2 C-terminal deletion mutant K214Stop (protein)
chain: MEDVEETYIMVKPDGIQRGLVGEIISRFEKKGFKLIGLKMFQCPKELAEEHYKELSAKSFFLTLIEYITSGPVVCMAWEGVGVVASARKLIGKTDPLQAEPGTIRGDLAVQTGRNIVHGSDSPENGKREIGLWF
B4: NDPK2 C-terminal deletion mutant N204Stop (enzyme)
chain: MEDVEETYIMVKPDGIQRGLVGEIISRFEKKGFKLIGLKMFQCPKELAEEHYKELSAKSFFLTLIEYITSGPVVCMAWEGVGVVASARKLIGKTDPLQAEPGTIRGDLAVQTGRNIVHGSDSPE
notes: also called N204Stop (80-203aa)
B5: NDPK2 C-terminal deletion mutant L225Stop (protein)
chain: MEDVEETYIMVKPDGIQRGLVGEIISRFEKKGFKLIGLKMFQCPKELAEEHYKELSAKSFFLTLIEYITSGPVVCMAWEGVGVVASARKLIGKTDPLQAEPGTIRGDLAVQTGRNIVHGSDSPENGKREIGLWFKEGELCKWDSA
B6: NDPK2 C-terminal deletion mutant S199Stop (enzyme)
chain: MEDVEETYIMVKPDGIQRGLVGEIISRFEKKGFKLIGLKMFQCPKELAEEHYKELSAKSFFLTLIEYITSGPVVCMAWEGVGVVASARKLIGKTDPLQAEPGTIRGDLAVQTGRNIVHG
notes: also called S199Stop (80-198aa)

Assays:
[1] = target: Arabidopsis thaliana NDPK2 C-terminal deletion mutant L225Stop (80-224aa), SEQ ID NO: 3 (Arabidopsis thaliana, UniProt O64903); details: read-out: Km (ATP); dCDP as acceptor
Description: (§1) In studying the phytochrome binding site in NDPK2, NDPK2 mutants, including the C-terminal deletion mutants, kinase site mutant H197C, and Kpn loop mutant P175S, were made and tested in the binding assays with the Pfr form of native oat phyA (FIG. 2A). […] To investigate the mechanism of hyperactivity of these NDPK2 mutants, the nucleotide affinity was investigated.
(§2) Full-length Arabidopsis NDPK2 was prepared as previously described (Im et al., 2004). The C-terminal deletion mutants of NDPK2 were prepared by polymerase chain reactions using following primers: R230Stop (80-229aa) with 3′ primer: 5′-[…]-[…]-3′ (SmaI) (SEQ ID NO: 8); L225Stop (80-224aa) with 3′ primer: 5′-[…]-[…]

[2] = target: T1, Arabidopsis thaliana NDPK2 C-terminal deletion mutant R230Stop (80-229aa), SEQ ID NO: 2; assay: Km of NDPK2 mutant R230Stop for nucleotides (γ-phosphate exchange activity assay, LDH-PK-coupled); details: read-out: Km (ATP); dCDP as acceptor
Description: as §1, §2

[3] = substrate: Nc1nc2c(ncn2[C@@H]2O[C@H](COP(=O)(O)OP(=O)(O)O)[C@@H](O)[C@H]2O)c(=O)[nH]1; assay: purified protein, by the assay type; details: other: ATP as donor; 37.0 °C
[4] = target: T2, purified native oat phytochrome A, Pfr …
[5] = substrate: Nc1ncnc2c1ncn2[C@@H]1O[C@H](COP(=O)(O)OP(=O)(O)OP(=O)(O)O)[C@@H](O)[C@H]1O; assay: Km of NDPK2 for nucleotides (γ-phosphate exchange activity assay, LDH-PK-coupled); assay type: biochemical, Arabidopsis thaliana; details: other: dCDP as acceptor; 37.0 °C
Description: NDPK proteins with a cleavable GST tag were expressed in Escherichia coli strain BL21 (DE3). The bacterial cells were induced for 4 h with 1 mM isopropyl β-D-thiogalactopyranoside (IPTG) at 310 K and then harvested by centrifugation at 4,500×g for 20 min. The cells were then resuspended in lysis buffer (1× PBS, phosphate-buffered saline) and lysed by sonication, after which the lysate was centrifuged at 16,000×g for 30 min. The resultant supernatant was applied to a glutathione-sepharose 4B affinity column pre-equilibrated with lysis buffer, after which the column was washed with ten bed volumes of lysis buffer. The GST fusion protein bound to the column was eluted with a buffer of 10 mM glutathione and 50 mM Tris-HCl (pH 8.0). GST Tags were cleaved from NDPKs by treatment with thrombin for 2 days at room temperature. The samples were then purified by size exclusion chromatography using a Superdex 200 column (Pharmacia Biotech) pre-equilibrated with a buffer of 50 mM NaCl and 10 mM Tris-HCl (pH 8.0), after which the fractions containing NDPKs were collected. […]
NDPK2 γ-phosphate exchange activity was measured as previously described (20) with minor modifications. […] NDPK2 activity was measured by monitoring the LDH-PK-coupled NADH decrease at 340 nm. […]

[6] = target: T3, purified native oat phytochrome A, Pfr …; assay: in vitro immunoprecipitation with native oat phyA, western blot
Excerpt: In studying the phytochrome binding site in NDPK2, NDPK2 mutants, including the C-terminal deletion mutants, kinase site mutant H197C, and Kpn loop mutant P175S, were made and tested in the binding assays with the Pfr form of native oat phyA (FIG. 2A). […] Moreover, no interactions between Pfr phytochrome and mutants N204Stop and S199Stop were observed. […] Results from the γ-phosphate exchange activity assay were consistent with the in vitro binding assay. […] Thus, R230Stop and L225Stop were hyperactive NDPK2 that binds normally to its upstream signaling molecule, phytochrome. To investigate the mechanism of hyperactivity of these NDPK2 mutants, the nucleotide affinity was investigated. By using two natural nucleotide substrates of NDPK2, ATP and GDP, the Kₘ values were measured to examine the relationship between the nucleotide affinity and NDPK activity in NDPK2 hyperactive mutants (Table 1). […] Therefore, it appears that a higher nucleotide affinity corresponds to a higher NDPK activity.
The in vitro binding assays of phytochrome and NDPK2 were performed by incubating 10 μg of phytochrome and 20 μg of NDPK2 in TBS buffer (50 mM Tris-HCl (pH 7.5), 150 mM NaCl), containing 5 mM MgCl₂, 2 mM dCDP, 0.1% NP40 and protease inhibitors, at 4° C. for 30 min. […]

| Molecule | Km [3] [mM mM] | stimulation by Pfr phytochrome in the γ-phosphate exchange activity assay [4] | further results |
| --- | --- | --- | --- |
| Nc1ncnc2c1ncn2[C@@H]1O[C@H](COP(=O)(O)OP(=O)(O)OP(=O)(O)O)[C@@H](O)[C@H]1O [ATP] | – | – | Km [1]: 213 µM; Km [2]: 211 µM |
| B1 | 0.203 | Mutants R230Stop and L225Stop were stimulated by Pfr phytochrome significantly | – |
| B2 | 0.231 | – | Km [5]: 0.286 mM mM |
| B3 | – | mutants K214Stop, N204Stop, and S199Stop were not stimulated under the identical conditions | – |
| B4 | – | mutants K214Stop, N204Stop, and S199Stop were not stimulated under the identical conditions | binding result [6]: no binding |
| B5 | 0.191 | Mutants R230Stop and L225Stop were stimulated by Pfr phytochrome significantly | – |
| B6 | – | mutants K214Stop, N204Stop, and S199Stop were not stimulated under the identical conditions | binding result [6]: no binding |
